The assay deals with Elastase (human neutrophil elastase) (human) (UniProt P08246).
Sequence of Elastase (human neutrophil elastase) (human) (P08246 30-267): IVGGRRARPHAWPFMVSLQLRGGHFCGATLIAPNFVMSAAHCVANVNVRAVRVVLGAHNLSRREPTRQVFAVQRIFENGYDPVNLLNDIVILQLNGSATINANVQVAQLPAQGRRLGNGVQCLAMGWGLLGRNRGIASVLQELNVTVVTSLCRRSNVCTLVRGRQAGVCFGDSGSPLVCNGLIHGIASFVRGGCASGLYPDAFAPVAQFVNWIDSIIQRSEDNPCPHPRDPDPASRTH

Substance Boophilin (natural protein) yielded a cleavage of TFPI (1 μg) by elastase (0.8 μg/mL) with Boophilin 0-3 μM, SDS-PAGE (Fig 4D) of 20%.

These data come from publication PMC4706430.
